T1: IL2R alpha (CD25) (UniProt P01589 22-213)
T1 chain: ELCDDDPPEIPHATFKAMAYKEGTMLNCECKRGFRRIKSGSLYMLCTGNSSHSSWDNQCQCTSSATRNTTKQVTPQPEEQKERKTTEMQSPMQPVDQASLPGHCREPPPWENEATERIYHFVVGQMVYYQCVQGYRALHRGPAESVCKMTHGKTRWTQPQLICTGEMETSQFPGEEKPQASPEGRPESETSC

T2: IL2R beta (CD122) (UniProt P14784 27-239)
T2 chain: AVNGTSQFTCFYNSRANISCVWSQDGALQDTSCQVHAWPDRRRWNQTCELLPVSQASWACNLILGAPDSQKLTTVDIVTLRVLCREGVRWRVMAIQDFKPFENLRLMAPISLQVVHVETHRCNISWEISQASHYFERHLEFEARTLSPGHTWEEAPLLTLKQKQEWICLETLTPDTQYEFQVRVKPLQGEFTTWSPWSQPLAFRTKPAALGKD

T3: IL13Rα Protein, Human, Recombinant, His Tag (human IL13Rα1) (human, UniProt P78552 22-343)
T3 chain: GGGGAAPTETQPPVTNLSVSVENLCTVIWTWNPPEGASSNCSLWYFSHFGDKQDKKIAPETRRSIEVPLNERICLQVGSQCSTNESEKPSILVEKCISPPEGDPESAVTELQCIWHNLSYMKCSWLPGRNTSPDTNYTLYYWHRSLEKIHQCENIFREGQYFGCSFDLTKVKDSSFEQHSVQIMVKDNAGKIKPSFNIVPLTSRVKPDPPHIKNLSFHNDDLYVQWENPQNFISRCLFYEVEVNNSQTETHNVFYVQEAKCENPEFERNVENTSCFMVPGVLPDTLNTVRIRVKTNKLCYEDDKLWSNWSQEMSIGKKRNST

T4: IL13Rα2 Protein, Human, Recombinant, His Tag (human, UniProt Q14627 27-343)
T4 chain: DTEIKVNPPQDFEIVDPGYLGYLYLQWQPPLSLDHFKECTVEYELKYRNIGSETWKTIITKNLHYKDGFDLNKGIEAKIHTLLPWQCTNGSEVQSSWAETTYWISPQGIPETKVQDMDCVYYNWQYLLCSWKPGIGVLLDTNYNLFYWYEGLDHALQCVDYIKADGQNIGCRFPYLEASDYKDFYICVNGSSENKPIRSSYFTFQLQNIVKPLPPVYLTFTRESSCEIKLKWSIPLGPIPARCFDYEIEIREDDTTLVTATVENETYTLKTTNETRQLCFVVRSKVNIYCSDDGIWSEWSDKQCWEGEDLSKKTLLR


Assays:
[1] = molecular target: MDNA109 (1st Gen.); experiment: BLI
[2] = molecular target: MDNA19 (3rd Gen.); experiment: BLI
[3] = molecular target: MDNA109-Alb (2nd Gen.); experiment: BLI
[4] = molecular target: T1, IL2R alpha (CD25); experiment: BLI
[5] = molecular target: T2, IL2R beta (CD122); experiment: BLI
[6] = molecular target: T3, IL13Rα Protein, Human, Recombinant, His …; experiment: SPR; equilibrium
[7] = molecular target: T4, IL13Rα2 Protein, Human, Recombinant, …; experiment: SPR; kinetic
[8] = molecular target: T3, IL13Rα Protein, Human, Recombinant, His …; experiment: SPR; kinetic
[9] = molecular target: T4, IL13Rα2 Protein, Human, Recombinant, …; experiment: SPR; equilibrium

Binder | Kd [6] [nM] | Kd [7] [nM] | Kd [8] [nM] | further results
CD122 (IL-2Rβ) (receptor) AVNGTSQFTCFYNSRANISCVWSQDGALQDTSCQVHAWPDRRRWNQTCELLPVSQASWACNLILGAPDSQKLTTVDIVTLRVLCREGVRWRVMAIQDFKPFENLRLMAPISLQVVHVETHRCNISWEISQASHYFERHLEFEARTLSPGHTWEEAPLLTLKQKQEWICLETLTPDTQYEFQVRVKPLQGEFTTWSPWSQPLAFRTKPAALGKD |  |  |  | Kd [1]: 1.8 nM; Kd [2]: 2.1 nM; Kd [3]: 3.5 nM
CD25 (IL-2Rα) (receptor) ELCDDDPPEIPHATFKAMAYKEGTMLNCECKRGFRRIKSGSLYMLCTGNSSHSSWDNQCQCTSSATRNTTKQVTPQPEEQKERKTTEMQSPMQPVDQASLPGHCREPPPWENEATERIYHFVVGQMVYYQCVQGYRALHRGPAESVCKMTHGKTRWTQPQLICTGEMETSQFPGEEKPQASPEGRPESETSC |  |  |  | Kd [1]: 26 nM; Kd [3]: 56 nM
MDNA109-Fc (2nd Gen.) (protein) APTSSSTKKTQLQLEHLLLDLQMILNGINNYKNPKLTRMLTFKFYMPKKATELKHLQCLEEELKPLEEVLNLAQSKNFHFDPRDVVSNINVFVLELKGSETTFMCEYADETATIVEFLNRWITFCQSIISTLTGGGGSGGGGSGGGGSDKTHTCPPCPAPELLGGPSVFLFPPKPKDTLMISRTPEVTCVVVDVSHEDPEVKFNWYVDGVEVHNAKTKPREEYASTYRVVSVLTVLHQDWLNGKEYKCKVSNKALPAPIEKTISKAKGQPREPQVYTLPPSREEMTKNQVSLTCLVKGFYPSDIAVEWESNGQPENNYKTTPPVLDSDGSFFLYSKLTVDKSRWQQGNVFSCSVMHEALHNHYTQKSLSLSPGK |  |  |  | Kd [4]: 14 nM; Kd [5]: 2.7 nM
A6 (protein) PGPVPPSTAIRELIEELLNITQNQKAPLCNGSMVWSINLTAGMYCAALESLINVSGCSAIEKTQRMLSGFCPHKVSAGQFSSLHVMKSKIEVAQFVKDLLHHLRALFREGQFN |  | 0.267 | 1.9 | 
C4 (protein) PGPVPPSTAVRELIEELVNITQNQKAPLCNGSMVWSINLTAGMYCAALESLINVSGCSAIEKTQRMLSGFCPHKVSAGQFSSLHVRDTRIEVAQFVKDLLNHLKELFTEGQFN | 36000 | 0.393 |  | 
C3 (protein) PGPVPPSTAARELIEELVNITQNQKAPLCNGSMVWSINLTAGMYCAALESLINVSGCSAIEKTQRMLSGFCPHKVSAGQFSSLHVTGKRIEVAQFVKDLLNHLRALFKEGQFN | 16000 | 0.379 |  | 
B2 (protein) PGPVPPSTALRELIEELINITQNQKAPLCNGSMVWSINLTAGMYCAALESLINVSGCSAIEKTQRMLSGFCPHKVSAGQFSSLHVTGSKIEVAQFVKDLLYHLRALFREGQFN |  | 1.5 | 0.275 | 
C7 (protein) PGPVPPSTALSELMEELVNITQNQKAPLCNGSMVWSINLTAGMYCAALESLINVSGCSAIEKTQRMLSGFCPHKVSAGQFSSLHVRDSKIEVAQFVKDLLNHLKALFKEGQFN | 35000 | 0.272 |  | 
C10 (protein) PGPVPPSTAHLELIEELINITQNQKAPLCNGSMVWSINLTAGMYCAALESLINVSGCSAIEKTQRMLSGFCPHKVSAGQFSSLHVMDTRIEVAQFVKDLLLHLKKLFKEGQFN | 264 | 5 |  | 
B4 (protein) PGPVPPSTALSELIEELINITQNQKAPLCNGSMVWSINLTAGMYCAALESLINVSGCSAIEKTQRMLSGFCPHKVSAGQFSSLHVKGSMIEVAQFVKDLLYHLRTLFREGQFN |  |  | 18 | Kd [9]: 108 nM
A5 (protein) PGPVPPSTALIELIEELINITQNQKAPLCNGSMVWSINLTAGMYCAALESLINVSGCSAIEKTQRMLSGFCPHKVSAGQFSSLHVKGSKIEVAQFVKDLLHHLRALMREGQFN |  |  | 2.94 | Kd [9]: 50 nM
A11 (protein) PGPVPPSTAVRELIEELINITQNQKAPLCNGSMVWSINLTAGMYCAALESLINVSGCSAIEKTQRMLSGFCPHKVSAGQFSSLHVRSSKIEVAQFVKDLLFHLRTLFREGQFN |  | 0.391 | 0.084 | 
B6 (protein) PGPVPPSTATRELIEELINITQNQKAPLCNGSMVWSINLTAGMYCAALESLINVSGCSAIEKTQRMLSGFCPHKVSAGQFSSLHVRGSKIEVAQFVKDLLYHLRTLFREGQFN |  |  | 5.9 | Kd [9]: 53 nM

The next lines start with results.

Kd [6] [nM] | Kd [7] [nM] | Kd [8] [nM] | Binder | further results
15000 | 0.053 |  | C12 (protein) PGPVPPSTAHRELIEELVNITQNQKAPLCNGSMVWSINLTAGMYCAALESLINVSGCSAIEKTQRMLSGFCPHKVSAGQFSSLHVMDSRIEVAQFVKDLLNHLRALFKEGQFN | 
31000 | 0.259 |  | C9 (protein) PGPVPPSTAHLELIEELINITQNQKAPLCNGSMVWSINLTAGMYCAALESLINVSGCSAIEKTQRMLSGFCPHKVSAGQFSSLHVKETRIEVAQFVKDLLNHLKTLFKEGQFN | 
3600 | 0.0001 |  | C11 (protein) PGPVPPSTAHRELIEELVNITQNQKAPLCNGSMVWSINLTAGMYCAALESLINVSGCSAIEKTQRMLSGFCPHKVSAGQFSSLHVTGRKIEVAQFVKDLLLHLKKLFKEGQFN | 
4000 | 0.025 |  | C2 (protein) PGPVPPSTADIELIEELINITQNQKAPLCNGSMVWSINLTAGMYCAALESLINVSGCSAIEKTQRMLSGFCPHKVSAGQFSSLHVKKTRIEVAQFVKDLLLHLKKLFKEGQFN | 
 | 0.218 | 1.18 | A7 (protein) PGPVPPSTAIRELIEELINITQNQKAPLCNGSMVWSINLTAGMYCAALESLINVSGCSAIEKTQRMLSGFCPHKVSAGQFSSLHVRGSKIEVAQFVKDLLHHLRALFREGQFN | 
 | 0.263 | 2.06 | A8 (protein) PGPVPPSTAIRELIEELINITQNQKAPLCNGSMVWSINLTAGMYCAALESLINVSGCSAIEKTQRMLSGFCPHKVSAGQFSSLHVRSSRIEVAQFVKDLLHHLRTLFREGQFN | 
4100 | 0.003 |  | D7 (protein) PGPVPPSTAARELIEELFNITQNQKAPLCNGSMVWSINLTAGMYCAALESLINVSGCSAIEKTQRMLSGFCPHKVSAGQFSSLHVKKTRIEVAQFVKDLLIHLRKLFKEGQFN | 
